Measurements as given in US20110142868A1 (CHIRALIX B V, published 2011).
Numbered stars: 1 amine (or outer) side, 2 acyl side, 3 side chain; on linkers, the order of the positions; unused ones are H or OH. Square brackets hold non-standard residues; d marks the D form. Ends that are not written are not given here. * marks the point of attachment. O(CA) = ornithine chloroamidine, N=C(CCl)NCCC[C@H](N[*:1])C(=O)[*:2]; Orn(fluoroacetimidoyl) = N=C(CF)NCCC[C@H](N)C(=O)O; Moc = COC(=O)*

Assays:
Experiment in all cases: cell-based or functional assay
recombinant human PAD2 [1] = target: T1, recombinant human PAD2 (human, UniProt Q9Y2J8 1-665)
recombinant human PAD4 [2] = target: T2, recombinant human PAD4 (human, UniProt Q9UM07 1-663)
recombinant human PAD2 [3] = target: T1, recombinant human PAD2; remark: listed apart in the source
recombinant human PAD4 [4] = target: T2, recombinant human PAD4; remark: listed apart in the source
[5] = target: human N(G),N(G)-dimethyl-L-arginine dimethylaminohydrolase isotype 1 (human, UniProt O94760 1-285)
caspase-3 = target: caspase-3
creatine kinase = target: creatine kinase
transglutaminase = target: transglutaminase
papain = target: T3, papain (UniProt P00784 134-345)
T3 sequence (looked up): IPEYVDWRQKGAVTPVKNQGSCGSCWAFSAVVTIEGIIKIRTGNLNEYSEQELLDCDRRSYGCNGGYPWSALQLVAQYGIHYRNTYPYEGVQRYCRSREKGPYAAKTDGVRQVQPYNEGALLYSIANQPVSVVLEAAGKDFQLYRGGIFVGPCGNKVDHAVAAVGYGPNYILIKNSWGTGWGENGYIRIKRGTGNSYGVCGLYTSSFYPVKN

recombinant human PAD2 [6] = target: T1, recombinant human PAD2; remark: listed apart in the source
recombinant human PAD4 [7] = target: T2, recombinant human PAD4; remark: listed apart in the source
recombinant human PAD2 [8] = target: T1, recombinant human PAD2; remark: listed apart in the source
recombinant human PAD4 [9] = target: T2, recombinant human PAD4; remark: listed apart in the source
recombinant human PAD2 [10] = target: T1, recombinant human PAD2; remark: listed apart in the source
recombinant human PAD4 [11] = target: T2, recombinant human PAD4; remark: listed apart in the source

human N(G),N(G)-dimethyl-L-arginine dimethylaminohydrolase isotype 1, sequence (O94760 whole entry): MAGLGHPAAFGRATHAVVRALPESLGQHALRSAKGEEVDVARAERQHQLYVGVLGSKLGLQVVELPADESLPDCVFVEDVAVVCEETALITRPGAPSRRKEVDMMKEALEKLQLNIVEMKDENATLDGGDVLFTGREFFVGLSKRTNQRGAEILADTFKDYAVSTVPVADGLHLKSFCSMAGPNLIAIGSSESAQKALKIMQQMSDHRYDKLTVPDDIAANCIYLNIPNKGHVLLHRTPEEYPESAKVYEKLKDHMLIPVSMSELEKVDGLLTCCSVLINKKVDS
T1 sequence (Q9Y2J8 whole entry): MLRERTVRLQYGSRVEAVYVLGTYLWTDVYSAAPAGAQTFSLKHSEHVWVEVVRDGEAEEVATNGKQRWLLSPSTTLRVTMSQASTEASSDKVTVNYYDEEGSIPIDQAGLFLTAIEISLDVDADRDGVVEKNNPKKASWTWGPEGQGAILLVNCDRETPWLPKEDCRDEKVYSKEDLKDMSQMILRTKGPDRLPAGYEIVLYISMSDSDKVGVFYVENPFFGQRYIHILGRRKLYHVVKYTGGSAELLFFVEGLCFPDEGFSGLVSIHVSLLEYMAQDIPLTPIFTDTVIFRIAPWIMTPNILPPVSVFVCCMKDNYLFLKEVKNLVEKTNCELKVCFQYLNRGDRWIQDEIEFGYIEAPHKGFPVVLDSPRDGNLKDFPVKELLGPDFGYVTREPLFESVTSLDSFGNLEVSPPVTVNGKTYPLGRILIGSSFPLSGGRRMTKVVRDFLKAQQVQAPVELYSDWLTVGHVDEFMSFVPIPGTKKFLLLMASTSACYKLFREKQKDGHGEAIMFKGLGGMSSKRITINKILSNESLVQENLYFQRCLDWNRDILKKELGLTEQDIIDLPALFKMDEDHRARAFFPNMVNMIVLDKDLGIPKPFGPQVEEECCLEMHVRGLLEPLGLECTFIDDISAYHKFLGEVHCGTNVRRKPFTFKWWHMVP
T2 sequence (Q9UM07 whole entry): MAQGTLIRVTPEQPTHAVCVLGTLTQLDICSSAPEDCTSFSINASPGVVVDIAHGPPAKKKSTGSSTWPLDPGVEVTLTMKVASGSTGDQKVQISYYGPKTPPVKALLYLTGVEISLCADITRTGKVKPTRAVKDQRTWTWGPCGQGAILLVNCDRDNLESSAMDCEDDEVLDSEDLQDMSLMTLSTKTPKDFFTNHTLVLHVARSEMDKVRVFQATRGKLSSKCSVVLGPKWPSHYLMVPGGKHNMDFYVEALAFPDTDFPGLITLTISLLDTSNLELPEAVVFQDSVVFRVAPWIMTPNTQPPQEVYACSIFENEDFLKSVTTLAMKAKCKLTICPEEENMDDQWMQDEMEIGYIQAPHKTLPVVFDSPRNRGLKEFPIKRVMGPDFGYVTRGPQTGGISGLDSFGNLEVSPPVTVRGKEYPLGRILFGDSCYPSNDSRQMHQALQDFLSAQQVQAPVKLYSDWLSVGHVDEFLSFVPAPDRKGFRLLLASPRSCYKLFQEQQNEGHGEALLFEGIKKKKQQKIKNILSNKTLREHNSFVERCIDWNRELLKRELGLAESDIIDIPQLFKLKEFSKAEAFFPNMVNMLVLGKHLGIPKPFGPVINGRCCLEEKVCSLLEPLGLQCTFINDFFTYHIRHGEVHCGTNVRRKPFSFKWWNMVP

GD[O(CA)]GS [G-D-O(CA)-G-S]
IC50 values (µM), ABAP PAD activity assay, second round (recombinant human PAD2 [1]): 38 µM | IC50 values (µM), ABAP PAD activity assay, second round (recombinant human PAD4 [2]): 60 µM

Ac-GD[O(CA)]GS [CXP5.2-078]
IC50 values (µM), colorimetric assay (recombinant human PAD2 [3]): > 500 µM | IC50 values (µM), colorimetric assay (recombinant human PAD4 [4]): 18 µM | IC50 values (µM), hDDAH-1 activity assay [5]: 1200 µM | IC50 values (µM), caspase-3 activity assay (caspase-3): 1000 µM | IC50 values (µM), creatine kinase activity assay (creatine kinase): 780 µM | IC50 values (µM), transglutaminase activity assay (transglutaminase): 730 µM | IC50 values (µM), papain activity assay (papain): 1050 µM

YD[O(CA)]GS [Y-D-O(CA)-G-S]
IC50 values (µM), ABAP PAD activity assay, second round (recombinant human PAD2 [1]): 58 µM | IC50 values (µM), ABAP PAD activity assay, second round (recombinant human PAD4 [2]): 44 µM

SS[Orn(fluoroacetimidoyl)]DG [S-S-O(FA)-D-G]
IC50 values (µM), ABAP PAD activity assay (recombinant human PAD2 [6]): 14 µM | IC50 values (µM), ABAP PAD activity assay (recombinant human PAD4 [7]): 177 µM

GS[O(CA)]DG [G-S-O(CA)-D-G]
IC50 values (µM), ABAP PAD activity assay (recombinant human PAD2 [6]): 172 µM | IC50 values (µM), ABAP PAD activity assay (recombinant human PAD4 [7]): 816 µM

TD[Orn(fluoroacetimidoyl)]GS [T-D-O(FA)-G-S]
IC50 values (µM), ABAP PAD activity assay (recombinant human PAD2 [6]): 19 µM | IC50 values (µM), ABAP PAD activity assay (recombinant human PAD4 [7]): 58 µM | IC50 values (µM), ABAP PAD activity assay, second round (recombinant human PAD2 [1]): 49 µM | IC50 values (µM), ABAP PAD activity assay, second round (recombinant human PAD4 [2]): 129 µM

GD[O(CA)]SG [G-D-O(CA)-S-G]
IC50 values (µM), ABAP PAD activity assay (recombinant human PAD2 [6]): 76 µM | IC50 values (µM), ABAP PAD activity assay (recombinant human PAD4 [7]): 189 µM

Ac-YD[O(CA)]GS [CXP5.2-081]
IC50 values (µM), colorimetric assay (recombinant human PAD2 [3]): 200 µM | IC50 values (µM), colorimetric assay (recombinant human PAD4 [4]): 10 µM | IC50 values (µM), hDDAH-1 activity assay [5]: 1330 µM | IC50 values (µM), caspase-3 activity assay (caspase-3): > 1000 µM | IC50 values (µM), creatine kinase activity assay (creatine kinase): 1000 µM | IC50 values (µM), transglutaminase activity assay (transglutaminase): > 1000 µM | IC50 values (µM), papain activity assay (papain): > 2000 µM

KFD[Orn(fluoroacetimidoyl)]DFI [K F D O(FA) D F I]
IC50 values (µM), ABAP PAD activity assay, second round (recombinant human PAD2 [1]): 17 µM | IC50 values (µM), ABAP PAD activity assay, second round (recombinant human PAD4 [2]): 122 µM

GD[Orn(fluoroacetimidoyl)]SG [G-D-O(FA)-S-G]
IC50 values (µM), ABAP PAD activity assay (recombinant human PAD2 [6]): 17 µM | IC50 values (µM), ABAP PAD activity assay (recombinant human PAD4 [7]): 178 µM

KWH[Orn(fluoroacetimidoyl)]DFF [K W H O(FA) D F F]
IC50 values (µM), ABAP PAD activity assay, second round (recombinant human PAD2 [1]): 16 µM | IC50 values (µM), ABAP PAD activity assay, second round (recombinant human PAD4 [2]): 161 µM

B1: 0748-09FA (peptide)
peptide: Ac-KWH[Orn(fluoroacetimidoyl)]DFF-NH2
SMILES: CC(=O)N[C@@H](CCCCN)C(=O)N[C@@H](Cc1c[nH]c2ccccc12)C(=O)N[C@@H](Cc1c[nH]cn1)C(=O)N[C@@H](CCCNC(=N)CF)C(=O)N[C@@H](CC(=O)O)C(=O)N[C@@H](Cc1ccccc1)C(=O)N[C@@H](Cc1ccccc1)C(N)=O
conversion of 0708-30 by PAD2, 10 µM inhibitor (0 µM: 68) (recombinant human PAD2 [8]): 23% | conversion of 0708-30 by PAD2, 50 µM inhibitor (0 µM: 68) (recombinant human PAD2 [8]): 6% | conversion of 0708-30 by PAD2, 100 µM inhibitor (0 µM: 68) (recombinant human PAD2 [8]): 5% | conversion of 0708-30 by PAD4, 10 µM inhibitor (0 µM: 81) (recombinant human PAD4 [9]): 51% | conversion of 0708-30 by PAD4, 50 µM inhibitor (0 µM: 81) (recombinant human PAD4 [9]): 22% | conversion of 0708-30 by PAD4, 100 µM inhibitor (0 µM: 81) (recombinant human PAD4 [9]): 13% | IC50 values (µM), caspase-3 activity assay (caspase-3): > 1000 µM | IC50 values (µM), creatine kinase activity assay (creatine kinase): 1000 µM | IC50 values (µM), transglutaminase activity assay (transglutaminase): > 1000 µM | IC50 values (µM), papain activity assay (papain): > 2000 µM | Inhibition of PAD2: value at 10 µM inhibitor (0 µM: 76) (recombinant human PAD2 [10]): 25% | Inhibition of PAD2: value at 20 µM inhibitor (0 µM: 76) (recombinant human PAD2 [10]): 14% | Inhibition of PAD2: value at 40 µM inhibitor (0 µM: 76) (recombinant human PAD2 [10]): 8% | Inhibition of PAD2: value at 80 µM inhibitor (0 µM: 76) (recombinant human PAD2 [10]): 4% | Inhibition of PAD4: value at 10 µM inhibitor (0 µM: 67) (recombinant human PAD4 [11]): 51% | Inhibition of PAD4: value at 20 µM inhibitor (0 µM: 67) (recombinant human PAD4 [11]): 38% | Inhibition of PAD4: value at 40 µM inhibitor (0 µM: 67) (recombinant human PAD4 [11]): 27% | Inhibition of PAD4: value at 80 µM inhibitor (0 µM: 67) (recombinant human PAD4 [11]): 18%

B2: CXP5-101 (peptide)
peptide: Moc-TD[Orn(fluoroacetimidoyl)]GS-OMe
SMILES: COC(=O)N[C@H](C(=O)N[C@@H](CC(=O)O)C(=O)N[C@@H](CCCNC(=N)CF)C(=O)NCC(=O)N[C@@H](CO)C(=O)OC)[C@@H](C)O
IC50 values (µM), colorimetric assay (recombinant human PAD2 [3]): 35 µM | IC50 values (µM), colorimetric assay (recombinant human PAD4 [4]): 10 µM | IC50 values (µM), hDDAH-1 activity assay [5]: > 2000 µM | IC50 values (µM), caspase-3 activity assay (caspase-3): > 1000 µM | IC50 values (µM), creatine kinase activity assay (creatine kinase): 780 µM | IC50 values (µM), transglutaminase activity assay (transglutaminase): 600 µM | IC50 values (µM), papain activity assay (papain): > 2000 µM

SS[O(CA)]DG [S-S-O(CA)-D-G]
IC50 values (µM), ABAP PAD activity assay (recombinant human PAD2 [6]): 55 µM | IC50 values (µM), ABAP PAD activity assay (recombinant human PAD4 [7]): 203 µM

B3: 0743-58FA (peptide)
peptide: Ac-KFD[Orn(fluoroacetimidoyl)]DFI-NH2
SMILES: CC[C@H](C)[C@H](NC(=O)[C@H](Cc1ccccc1)NC(=O)[C@H](CC(=O)O)NC(=O)[C@H](CCCNC(=N)CF)NC(=O)[C@H](CC(=O)O)NC(=O)[C@H](Cc1ccccc1)NC(=O)[C@H](CCCCN)NC(C)=O)C(N)=O
conversion of 0708-30 by PAD2, 10 µM inhibitor (0 µM: 68) (recombinant human PAD2 [8]): 33% | conversion of 0708-30 by PAD2, 50 µM inhibitor (0 µM: 68) (recombinant human PAD2 [8]): 8% | conversion of 0708-30 by PAD2, 100 µM inhibitor (0 µM: 68) (recombinant human PAD2 [8]): 4% | conversion of 0708-30 by PAD4, 10 µM inhibitor (0 µM: 81) (recombinant human PAD4 [9]): 38% | conversion of 0708-30 by PAD4, 50 µM inhibitor (0 µM: 81) (recombinant human PAD4 [9]): 19% | conversion of 0708-30 by PAD4, 100 µM inhibitor (0 µM: 81) (recombinant human PAD4 [9]): 10% | IC50 values (µM), colorimetric assay (recombinant human PAD2 [3]): 35 µM | IC50 values (µM), colorimetric assay (recombinant human PAD4 [4]): 6 µM | IC50 values (µM), hDDAH-1 activity assay [5]: > 2000 µM | IC50 values (µM), caspase-3 activity assay (caspase-3): 920 µM | IC50 values (µM), creatine kinase activity assay (creatine kinase): 800 µM | IC50 values (µM), transglutaminase activity assay (transglutaminase): 1000 µM | IC50 values (µM), papain activity assay (papain): > 2000 µM | Inhibition of PAD2: value at 10 µM inhibitor (0 µM: 74) (recombinant human PAD2 [10]): 39% | Inhibition of PAD2: value at 20 µM inhibitor (0 µM: 74) (recombinant human PAD2 [10]): 26% | Inhibition of PAD2: value at 40 µM inhibitor (0 µM: 74) (recombinant human PAD2 [10]): 15% | Inhibition of PAD2: value at 80 µM inhibitor (0 µM: 74) (recombinant human PAD2 [10]): 9% | Inhibition of PAD4: value at 10 µM inhibitor (0 µM: 71) (recombinant human PAD4 [11]): 46% | Inhibition of PAD4: value at 20 µM inhibitor (0 µM: 71) (recombinant human PAD4 [11]): 36% | Inhibition of PAD4: value at 40 µM inhibitor (0 µM: 71) (recombinant human PAD4 [11]): 18% | Inhibition of PAD4: value at 80 µM inhibitor (0 µM: 71) (recombinant human PAD4 [11]): 13%

GS[Orn(fluoroacetimidoyl)]DG [G-S-O(FA)-D-G]
IC50 values (µM), ABAP PAD activity assay (recombinant human PAD2 [6]): 18 µM | IC50 values (µM), ABAP PAD activity assay (recombinant human PAD4 [7]): 443 µM

TD[O(CA)]GS [T-D-O(CA)-G-S]
IC50 values (µM), ABAP PAD activity assay (recombinant human PAD2 [6]): 34 µM | IC50 values (µM), ABAP PAD activity assay (recombinant human PAD4 [7]): 153 µM
